From patent US20190352411A1 (ALLIGATOR BIOSCIENCE, published 2019)
Read-outs that look alike come from different tables or passages of the source.

Columns and labels:
[1] = molecular target: T1, human FcγRIIa (R&D Systems #1330-CD-050) (human, UniProt P12318 36-218, limits assumed); test: Octet (BLI), antibody captured on FAB2G tips, soluble FcγR as analyte, 1:1 model
T1 construct: Soluble analyte in the Octet assay
T1 sequence (looked up): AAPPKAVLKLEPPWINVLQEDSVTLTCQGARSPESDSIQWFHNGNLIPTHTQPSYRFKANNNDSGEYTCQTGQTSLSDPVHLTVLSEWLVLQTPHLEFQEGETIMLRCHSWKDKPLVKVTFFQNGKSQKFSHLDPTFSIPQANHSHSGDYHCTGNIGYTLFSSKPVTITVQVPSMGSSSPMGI
Text: (§1) The processed data was fitted using a 1:1 Langmuir binding model with X² as a measurement of fitting accuracy.

[2] = molecular target: T2, human FcγRIIb (R&D Systems #1460-CD-050) (human, UniProt P31994 46-217, limits assumed); test: as above
T2 construct: Soluble analyte in the Octet assay
T2 sequence (looked up): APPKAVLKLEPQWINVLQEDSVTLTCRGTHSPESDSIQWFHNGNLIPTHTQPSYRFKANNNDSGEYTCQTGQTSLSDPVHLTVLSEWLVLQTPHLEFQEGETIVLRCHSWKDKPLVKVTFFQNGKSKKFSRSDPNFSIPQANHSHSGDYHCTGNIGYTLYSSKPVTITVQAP
Text: as §1

[3] = molecular target: cynomolgus CD137 (Acro Biosystems #41B-C52H4) (cynomolgus, UniProt A9YYE7 24-186); test: Octet (BLI), antibody amine-coupled to ARG2 biosensor, soluble CD137 as analyte, 1:1 model
Experimental: Materials and method CD137 affinity was determined using the Octet Red 96 platform (ForteBio). […] 7 2-fold serial dilutions of CD137 (Acro Biosystems #41B-H5227 and #41B-C52H4) from 100 nM was prepared in 1× kinetic buffer (ForteBio #18-1092). Association was measured for 180 s followed by dissociation for 180 s in 1× kinetic buffer. 10 mM Glycine pH 2.2 was used for regeneration.
Data generated was referenced by reference well subtraction (1188), the baseline was aligned with the y-axis, inter-step correlation by alignment against association was performed and the data was smoothed by a Savitzky-Golay filtering in the data analysis software (v.9.0.0.14). The processed data was fitted using a 1:1 Langmuir binding model with X² as a measurement of fitting accuracy.

[4] = molecular target: T3, cynomolgus CD137 on transfected CHO cells (CHO-cyCD137) (cynomolgus (Macaca fascicularis); human); test: flow cytometry on CHO-cyCD137 cells; 95% confidence interval of the EC50
T3 construct: extracellular domain;domain: transmembrane and intracellular part; also called cyno CD137
Experimental: (§2) Binding and EC50 was determined using flow cytometric of CHO cells transfected with human CD137, cynomolgus CD137 or empty vector. The extracellular part of human or cynomolgus CD137 was fused to the transmembrane and intracellular part of human CD40 and cloned into pcDNA3.1. The vector was subsequently stably transfected into CHO cells. […] CD137-transfected and empty vector-transfected cells were incubated with CD137 antibodies for at least 1 h at 4° C. to saturate the binding. In order to minimize antibody internalization, 0.05% sodium azide was used in the incubation buffer and all work was performed on ice. The CD137 antibodies were detected using PE-conjugated anti-hIgG antibody (109-115-098, Jackson Immunoresearch laboratories), incubated for 30 min at 4° C. Directly after staining the cells were fixed with a paraformaldehyde solution (10× concentrate BD CellFIX, BD biosciences #340181). Cells were analyzed by flow cytometry using FACSVerse (BD Biosciences). The median fluorescence intensity (MFI) for each sample was determined and the dose response data was analysed using Graph Pad Prism.
(§3) MFI data was normalized for each antibody, where 0% is defined as the lowest value and 100% is the highest value in the dose titration for each antibody.

[5] = molecular target: T4, 1553: Human CD137 with mouse domains 3A, 3B and 4A (aa 87-133) (human; mouse, UniProt P20334 86-133); test: flow cytometry on transfected 293-F cells, human/mouse CD137 chimera
T4 construct: domain: domains 3A, 3B and 4A (aa 87-133); Human/mouse chimera transiently expressed on FreeStyle 293-F cells
Experimental: (§4) The ability of each antibody to bind to a panel of human/mouse CD137 chimeras expressed on the surface of transfected cells was analyzed by flow cytometry.
(§5) The chimeras were designed by exchanging domains or modules of the human CD137 with the corresponding mouse domain. Genes of CD137 human/mouse chimeras were synthesized (GenScript) and constructs cloned into pcDNA3.1 vector (Invitrogen) and transiently transfected into FreeStyle 293-F cells (Invitrogen). The transfected cells were incubated with CD137 antibodies and control antibodies, followed by incubation with anti-human IgG-PE (Jackson Immunoresearch) for detection and analyzed with FACS Verse (BD Biosciences). Binding to the different chimeric constructs was calculated as relative MFI compared to the binding of the isotype control, followed by normalization to the full-length human CD137 construct to minimize the effect of affinity differences between individual antibodies.

[6] = molecular target: T5, 1555: Human CD137 with mouse domains 1 and 4B and region of unknown function (aa 24-46 and aa 139-186) (human; mouse, UniProt P20334 24-45; P20334 139-185); test: as above
T5 construct: Human/mouse chimera transiently expressed on FreeStyle 293-F cells
Experimental: as §4, §5

[7] = molecular target: T6, 1550: Human CD137 with mouse domains 1, 2A and 2B (aa 24-86) (human; mouse, UniProt P20334 24-85); test: as above
T6 construct: domain: domains 1, 2A and 2B (aa 24-86); Human/mouse chimera transiently expressed on FreeStyle 293-F cells; Limits of the human pieces are worked out from the printed aa range
Experimental: as §4, §5

[8] = molecular target: T7, 1551: Human CD137 with mouse domains 2A, 2B and 3A (aa 47-96) (human; mouse, UniProt P20334 46-95); test: as above
T7 construct: domain: domains 2A, 2B and 3A (aa 47-96); Human/mouse chimera transiently expressed on FreeStyle 293-F cells
Experimental: as §4, §5

[9] = molecular target: T8, 1552: Human CD137 with mouse domains 2B, 3A and 3B (aa 64-118) (human; mouse, UniProt P20334 63-117); test: as above
T8 construct: Human/mouse chimera transiently expressed on FreeStyle 293-F cells
Experimental: as §4, §5

[10] = molecular target: T9, 1554: Human CD137 with mouse domains 3B, 4A and 4B (aa 97-159) (human; mouse, UniProt P20334 96-159); test: as above
T9 construct: domain: domains 3B, 4A and 4B (aa 97-159); Human/mouse chimera transiently expressed on FreeStyle 293-F cells
Experimental: as §4, §5

[11] = molecular target: T10, human CD137 on transfected CHO cells (CHO-huCD137) (human); test: flow cytometry on CHO-huCD137 cells; 95% confidence interval of the EC50
T10 construct: domain: transmembrane and intracellular part
Experimental: as §2, §3

[12] = molecular target: T3, cynomolgus CD137 on transfected CHO …; test: flow cytometry on CHO-cyCD137 cells; 95% confidence interval of the EC50; remark: listed apart in the source
[13] = molecular target: T10, human CD137 on transfected CHO cells …; test: flow cytometry on CHO-huCD137 cells; 95% confidence interval of the EC50; remark: listed apart in the source
Experimental: as §2, §3

T10 sequence (P25942 other isoform, or with tags, fused parts or gaps limits assumed): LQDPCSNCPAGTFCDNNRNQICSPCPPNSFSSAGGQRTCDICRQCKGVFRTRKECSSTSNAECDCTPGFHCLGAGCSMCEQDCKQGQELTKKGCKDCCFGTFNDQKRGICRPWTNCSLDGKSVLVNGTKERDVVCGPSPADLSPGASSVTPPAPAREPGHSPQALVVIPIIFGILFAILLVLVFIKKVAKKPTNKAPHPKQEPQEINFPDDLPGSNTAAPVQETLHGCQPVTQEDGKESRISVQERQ
T3 sequence (P25942 other isoform, or with tags, fused parts or gaps): as the sequence (P25942 other isoform, or with tags, fused parts or gaps limits assumed) above, with P4L, N19S, R50K, T66I, P67S, F69Y, G75E, V149A counted along it
T4 sequence (P20334 other isoform, or with tags, fused parts or gaps limits assumed): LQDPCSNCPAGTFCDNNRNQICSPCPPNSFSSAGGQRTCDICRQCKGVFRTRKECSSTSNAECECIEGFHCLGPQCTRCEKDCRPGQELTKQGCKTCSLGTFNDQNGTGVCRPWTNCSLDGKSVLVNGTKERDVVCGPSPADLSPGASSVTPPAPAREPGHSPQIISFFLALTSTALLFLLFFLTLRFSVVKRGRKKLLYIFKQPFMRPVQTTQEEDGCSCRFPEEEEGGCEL
T7 sequence (P20334 other isoform, or with tags, fused parts or gaps limits assumed): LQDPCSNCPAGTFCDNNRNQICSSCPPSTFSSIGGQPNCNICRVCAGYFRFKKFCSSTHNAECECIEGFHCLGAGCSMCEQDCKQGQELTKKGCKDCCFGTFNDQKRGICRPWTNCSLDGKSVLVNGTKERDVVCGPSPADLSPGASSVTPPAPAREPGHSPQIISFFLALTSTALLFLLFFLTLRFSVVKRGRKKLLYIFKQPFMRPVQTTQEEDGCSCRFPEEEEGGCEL
T8 sequence (P20334 other isoform, or with tags, fused parts or gaps limits assumed): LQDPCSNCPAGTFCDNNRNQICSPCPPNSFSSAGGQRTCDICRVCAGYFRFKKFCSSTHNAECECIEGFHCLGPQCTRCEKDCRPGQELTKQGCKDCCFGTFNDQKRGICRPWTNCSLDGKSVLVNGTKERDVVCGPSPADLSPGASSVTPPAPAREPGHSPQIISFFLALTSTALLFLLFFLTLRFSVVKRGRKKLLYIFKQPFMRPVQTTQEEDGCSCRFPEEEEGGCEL
T5 sequence (P20334 other isoform, or with tags, fused parts or gaps limits assumed): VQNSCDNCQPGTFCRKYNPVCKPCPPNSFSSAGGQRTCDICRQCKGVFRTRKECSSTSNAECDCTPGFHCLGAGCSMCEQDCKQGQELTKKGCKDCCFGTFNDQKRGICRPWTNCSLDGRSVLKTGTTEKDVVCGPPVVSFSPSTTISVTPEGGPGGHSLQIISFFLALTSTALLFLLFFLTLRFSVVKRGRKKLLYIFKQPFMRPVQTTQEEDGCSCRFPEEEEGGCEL
T6 sequence (P20334 other isoform, or with tags, fused parts or gaps limits assumed): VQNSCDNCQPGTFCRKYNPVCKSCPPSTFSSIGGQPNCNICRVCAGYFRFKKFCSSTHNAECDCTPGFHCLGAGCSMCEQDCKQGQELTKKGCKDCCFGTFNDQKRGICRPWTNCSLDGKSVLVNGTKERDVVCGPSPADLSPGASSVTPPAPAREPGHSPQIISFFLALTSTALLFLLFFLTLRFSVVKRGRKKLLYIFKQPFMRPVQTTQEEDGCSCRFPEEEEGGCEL
cynomolgus CD137 (Acro Biosystems #41B-C52H4), sequence (A9YYE7 entry or part of it): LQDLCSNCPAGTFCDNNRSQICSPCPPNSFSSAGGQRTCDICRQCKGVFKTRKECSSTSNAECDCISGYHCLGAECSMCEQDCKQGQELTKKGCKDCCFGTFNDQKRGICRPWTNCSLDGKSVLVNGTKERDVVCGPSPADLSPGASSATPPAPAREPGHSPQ
T9 sequence (P20334 other isoform, or with tags, fused parts or gaps limits assumed): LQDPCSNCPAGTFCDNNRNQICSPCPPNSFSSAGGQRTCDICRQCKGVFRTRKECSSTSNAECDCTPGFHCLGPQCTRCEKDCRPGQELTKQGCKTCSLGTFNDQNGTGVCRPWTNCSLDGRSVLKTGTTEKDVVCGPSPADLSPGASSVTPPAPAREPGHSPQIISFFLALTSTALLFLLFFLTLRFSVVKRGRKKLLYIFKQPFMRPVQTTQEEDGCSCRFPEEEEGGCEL

- Kd [1]: 587 nM
- Kd [2]: 2700 nM
- Kd [3]: 10 nM
- EC50 [4]: 0.41 to 0.56 nM
- MFI antibody/isotype control, normalized to full-length human CD137 [5]: 0.17
- MFI antibody/isotype control, normalized to full-length human CD137 [6]: 0.26
- MFI antibody/isotype control, normalized to full-length human CD137 [7]: 0.22
- MFI antibody/isotype control, normalized to full-length human CD137 [8]: 0.37
- MFI antibody/isotype control, normalized to full-length human CD137 [9]: 0.19
- MFI antibody/isotype control, normalized to full-length human CD137 [10]: 0.16
- EC50 [11]: 0.21 to 0.31 µg/mL
- EC50 [12]: 0.13 to 0.24 µg/mL
- EC50 [13]: 0.16 to 0.27 nM
B1: REF2 (antibody)
chain 1: not shown
chain 2: DIVMTQSPDSLSVSLGERATINCRASKSVDSYGNSFMHWYQQKPGQPPKLLIYLASNLESGVPDRFSGSGSGTDFTLTISSLQAEDVAVYYCQQNNEDPRTFGGGTKVEIKRTVAAPSVFIFPPSDEQLKSGTASVVCLLNNFYPREAKVQWKVDNALQSGNSQESVTEQDSKDSTYSLSSTLTLSKADYEKHKVYACEVTHQGLSSPVTKSFNRGEC
